According to patent publication US20130130268A1 (published 2013):

Target: T1, His-tagged PDGFR alpha (aminoacids 1-834 of human PDGFR alpha fused to a 6×histidine tag) (human, UniProt P16234 24-834)
T1 construct: Complete extracellular and transmembrane regions plus part of the intracellular domain; Expressed in HeLa cells, purified from lysates and immobilized on the IAsys biosensor; The cDNA encodes residues 1-834; also called immobilized His-tagged PDGFR alpha; truncated conformer of PDGFR alpha
T1 sequence (P16234 other isoform, or with tags, fused parts or gaps): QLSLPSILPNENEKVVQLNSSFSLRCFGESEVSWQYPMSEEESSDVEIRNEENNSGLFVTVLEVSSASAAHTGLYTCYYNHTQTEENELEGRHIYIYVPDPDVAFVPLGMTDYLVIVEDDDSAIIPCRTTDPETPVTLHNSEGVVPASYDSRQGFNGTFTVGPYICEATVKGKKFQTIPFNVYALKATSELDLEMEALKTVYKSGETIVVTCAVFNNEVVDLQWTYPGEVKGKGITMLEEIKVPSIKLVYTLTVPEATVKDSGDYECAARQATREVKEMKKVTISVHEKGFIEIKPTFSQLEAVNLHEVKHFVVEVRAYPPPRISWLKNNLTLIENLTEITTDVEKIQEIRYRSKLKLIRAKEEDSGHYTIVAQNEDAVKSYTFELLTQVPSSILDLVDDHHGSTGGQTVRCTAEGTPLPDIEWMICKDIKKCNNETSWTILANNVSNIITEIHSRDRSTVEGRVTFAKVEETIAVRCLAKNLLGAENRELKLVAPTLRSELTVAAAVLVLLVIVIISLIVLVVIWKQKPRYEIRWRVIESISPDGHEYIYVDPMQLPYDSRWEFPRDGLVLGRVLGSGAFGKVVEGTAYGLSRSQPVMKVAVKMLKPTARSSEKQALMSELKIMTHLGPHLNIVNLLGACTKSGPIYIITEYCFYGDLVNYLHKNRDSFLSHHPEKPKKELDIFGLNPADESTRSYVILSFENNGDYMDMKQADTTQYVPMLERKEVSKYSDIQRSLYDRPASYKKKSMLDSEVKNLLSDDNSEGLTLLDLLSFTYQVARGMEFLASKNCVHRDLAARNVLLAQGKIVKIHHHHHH
Experiment: IAsys optical biosensor, immobilized His-tagged PDGFR alpha
Protocol: A detailed characterization of rHumaab interaction with human PDGFR alpha was performed on an optical biosensor, using as a molecular bait a homemade truncated conformer of this receptor containing the complete extracellular and transmembrane regions joined to a poly-histidine tail (HIS tag) replacing part of the intracellular domain, and serving both as an anchor to the biosensor surface and as a spacer. Preservation of proper folding of the immobilized receptor into a naive-like conformation was verified by monitoring the interaction with its natural binding partner (PDGF-BB) and with two mouse monoclonal antibodies specific for conformational PDGFR alpha epitopes (FIG. 6a). Using this approach, both kinetics and equilibrium parameters of the interaction between PDGF-BB, each rHumaab and PDGFR alpha were determined. […] Additionally, the analysis of association and dissociation rate constants for soluble ligands binding to PDGFR alpha, further defined the mechanistic properties of the macromolecular recognition process. […] Conversely, differences in equilibrium constants among rHumaab were reflected by corresponding differences in dissociation rate constants (kdiss=, 0.035 s⁻¹, 0.02 s⁻¹, and 0.003 s⁻¹, respectively for Vk13B8, Vk16F4 and Vlambda16F4).

B1: human PDGF-BB (ligand)
chain 1: SLGSLTIAEPAMIAECKTRTEVFEISRRLIDRTNANFLVWPPCVEVQRCSGCCNNRNVQCRPTQVQLRPVQVRKIEIVRKKPIFKKATVTLEDHLACKCETVAAARPVT
chain 2: B1 chain 1
notes: The name BB means a homodimer of B chains
Kd: 0.23 nM
kon: 3e+07 M⁻¹ s⁻¹

B2: Vlambda16F4 rHumaab (antibody, human IgG1, V domains shown)
VH: GLVKPLETLSLTCSVSGGSVSDGSYFWNWIRQPPGKGLEWIGYAYSRGTTNYSPSLKGRITISVDKSKNQISLKLTSVTPADTAVYYCARDSFEIWGQGTMVTV
VL: QSALTQPASVSGSPGQSITISCTGTSSDVGGYNYVSWYQHHPGKAPKLMIYEVSHRPSGVSNRFSGSKSGNTASLTISGLQAEDEADYYCSSYTSSSHVVFGGGTKLTVL
notes: Tested as a whole human IgG1 made in CHO cells (pDR12 vector, b12 constant regions, with Fc)
Kd: 16.6 nM
koff: 0.003 s⁻¹

B3: Vk13B8 rHumaab (antibody, human IgG1, V domains shown)
VH: B2 VH
VL: DIQMTQSPSSLSASVGDRVTITCRASQGISNYLAWFQQKPGKAPKSLIYAASSLQSGVPSKFSGSGSGTDFTLTISSLQPEDFATYYCQQYNSFPYTFGQGTKLEIK
notes: Tested as a whole human IgG1 made in CHO cells (pDR12 vector, constant regions of antibody b12, with Fc); also called Vκ13B8; recombinant human monoclonal auto-antibody Vk13B8
Kd: 184 nM
koff: 0.035 s⁻¹

B4: Vk16F4 rHumaab (antibody, human IgG1, V domains shown)
VH: B2 VH
VL: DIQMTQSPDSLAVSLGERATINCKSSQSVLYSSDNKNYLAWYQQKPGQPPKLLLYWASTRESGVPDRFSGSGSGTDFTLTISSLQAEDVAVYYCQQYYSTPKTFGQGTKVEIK
notes: Tested as a whole human IgG1 made in CHO cells (pDR12 vector, b12 constant regions, with Fc); also called Vκ16F4; rHumaab VK16F4
Kd: 71.4 nM
koff: 0.02 s⁻¹
